Laboratory results taken from the RNAGym collection of RNA variant scans (doi:10.1073/pnas.2313332121).

B1: TPR t1 (parent)
chain: GACCAAUCUGCCCUCAGAGCUCGAGAACAUCUUCGGAUGCAGAGGAGGCAGGCUUCGGUGGCGCGAUAGCGCCAACGUCCUCAACCUCCAAUGCAUCCCACCACAUGAUGAUGCCUGAAGAGCCUUGGUUUUUUG

Variants of: B1
Assay: polymerase ribozyme fitness, log enrichment relative to wild type (log ratio); higher = more active; in vitro selection for triplet polymerase activity
Outline: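 Libraries of mutants in each subunit of a heterodimeric triplet polymerase ribozyme were generated by PCR and transcribed. In triplicate, each went through one in vitro selection round: annealing with biotinylated primer, partner subunit and triplets; frozen incubation at −7 °C; gel excision of extended constructs; streptavidin-bead capture; RT-PCR. Fitness, taken from Illumina sequencing of input and output libraries, is the logarithm of a genotype's enrichment over wild-type enrichment, averaged across replicates with inverse-variance weights. The logarithm is base 2, and genotypes needed ≥10 input reads and ≥1 read per output to be kept.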

Variant	polymerase ribozyme fitness (log ratio)
C12U C72G A103G C124A	-5.75
C13A A16U C72U G93A	-3.35
C12U G36C A46U U112C G127U	0.627
C12U C104G	-4.58
C12U U32C C56G	-0.144
C12U C15U C72A A121U	1.3
C12U C72A	0.312
C12U C49A C115U	-1.47
C13A C101A	-2.54
C12U C40A C99U	-4.01
C12U C53U C124U	1.56
C13A A16U U116G	-1.13
C13A G17C C72U C88U A121G	-2.21
C12U C49A C73U U92C	-1
C12U G51A C79U C101A	-3.78
C12U G36U A74C C94U A111G U116A	-2.62
C13A G39U G69U U109A	-5.33
C13A A18U G42U G61U C123G	-0.471
C13A C40A G71A	-4.02
C13A A108G	-5.35
C12U C72U A83U C99U	-3.62
C13A C86U C124G	1.07
C12U G48U C49U G63C C94U G128C	-4.36
C12U U38C G42U G61A U96A G122U	-4.37

Variant	polymerase ribozyme fitness (log ratio)
C12U G17A U59A G61C C124A	-1.65
C12U G47U G63A U129A	-3.16
C12U C40G C72G	-1.36
C13A C88G	-3.12
C12U G71U	0.0835
C12U U130A	-0.0283
C12U G39A C56A G71A	-4.31
C13A C72U U92C U133A	-3.18
C12U U33G	-5.61
C12U G19C	-1.79
C12U C15A A43C C72U A108U C123G	-6.32
C12U G36U C104U C123G	0.937
C13A C62U	-2.18
C13A C28G A46G G110C U125C	-0.574
C12U G36C G45A	-0.823
C12U G51A G120A G127C G128U	-1.84
C12U C86A C98U	-0.708
C13A C49U C53G G61U	-3.09
C12U G63U A75C	-0.74
C12U U38C G71U C101G	-2.11
C12U G47U A119C C123A	-2.6
C12U C28U U78A A100C G113A	-3.61
C12U U21G U38A G61C A103U U112C C115A A118G G127U	-6.24
C13A A43G G110A C124G G128A	-6.67

Variant	polymerase ribozyme fitness (log ratio)
C12U C22G G45A C94U C99U	-4.27
C12U G36A	-0.19
C12U G45U G57A G60A U116G	-1.77
C13A C85U C102U	-4.16
C12U C85U U112C	0.732
C12U C70U C94U	0.056
C12U G110A	0.122
C12U G110C	-2.23
C13A C94U	-2.74
C13A C94A	-2.07
C12U G61A C73A C88A	-1.6
C13A C123A	-0.742
C12U G61A U92A U126A	-4.38
C12U G47U G69A G110C U112G	-7.15
C13A A37G	-2.27
C13A C64U C115A	-2.72
C12U G42U C49G U96C	-2.37
C12U G61C A119U	-1.74
C13A A18U G42U C123G	-0.827
C12U C20A C56A U116G	-4.71
C13A G42U	-3.39
C12U G93A	-0.0469
C12U G93U	-0.871
C12U C40U C86U C94G U130A	-3.47

Variant	polymerase ribozyme fitness (log ratio)
C12U C31U	-4.34
C12U G47U G120U	0.786
C12U G42U C49G C73U U96C	-2.57
C12U G52A C86U C97A	-4.13
C12U C53U G71U G77A G120C	1.19
C12U C80U G110A U130C	-0.275
C12U C102U	-1.83
C12U C13U C76A C114G	-3.72
C12U G48A	-0.765
C12U G45U C70G U132C	-6.34
C12U G39U	-0.353
C12U G39C	-0.515
C13A G19A G113U	-3.81
C12U G48C G63U U130C	-1
C13A G36C C64U C80U U112G G117A	-6.43
C12U C49A C62A C70A U78A	-4.12
C12U G61U C62U G113A	-4.94
C13A C72U U78A	-2.1
C12U G47U	-0.627
C12U C28U C53G U129A U130C	-2.76
C13A C49G G122U C124G	-0.569
C12U G44A C88U U92G U112A U116G G135A	-5.19
C13A C70G G93A C104A G110C	-6.34
C12U C22G C72G C104A G113C A118G U129A	-6.33

Variant	polymerase ribozyme fitness (log ratio)
C13A C22A C31A A46U G71A G120A	-6.56
C12U C53U	0.906
C13A G42A G69U A111C U116A U129G	-4.99
C12U C70A C88U U129C	-1.99
C13A A46U U106C	-2.81
C12U G39U C62A U78A	-1.41
C12U C80U C102U	-2.35
C12U C22U U33A C124G	-5.71
C13A A16G U133G	-2.57
C12U G52U A68G A74G	-3.85
C12U C86G	-0.52
C12U C62U G69A	-3.66
C13A A105U	-3.91
C12U C123G	2.68
C12U G39C A121C	0.709
C12U C88A	-0.264
C12U C88U	0.381
C12U C115A	0.202
C12U G71A U92G U96A	-5.06
C12U G69U	1.01
C12U U87C A103U G120A	-1.81
C12U C15U A90G A100C	-1.2
C12U U116A	-1.04
C13A A37C C73U A118U	-1.72

Variant	polymerase ribozyme fitness (log ratio)
C13A A66C C123A	-2.16
C12U U112A	1.23
C12U C34U	-3.06
C13A A91C U96C	-2.79
C12U C79A U106C	-1.41
C12U C20U A43U C62U U96C U106A U129A	-6.14
C12U G77C U81G	-1.21
C13A G17U	-4.98
C12U G36C A46U C72G U112C G127U	-1.47
C12U U81G	-2.24
C12U C97G C104U	-2.92
C12U G17U C73U C88U C104A U109A	-5.21
C12U C124U	1.66
C12U C20G G63U U106C	-6.59
C12U G39A C85U	-1.02
C12U C56U G58A G71U U112C G122A	0.796
C12U C15A A37C G52U C72U U116G	-3.77
C12U C53U C98U U132A	-0.748
C12U C98A	-4.29
C12U C64U C72A U87C	-0.223
C12U U78C	-0.312
C13A A41C C73G	-4.43
C12U G17C C72G C82G U112C C123U U131C	-3.8
C13A C15A G47A C123U G127C	-3.95

Variant	polymerase ribozyme fitness (log ratio)
C13A C82U	-1.59
C13A C82G	-1.93
C12U G48U C94U	-1.04
C12U G113C G120U	-3.12
C12U C72G C86U C104U G122A	-0.0421
C12U G60U A90G C99U	-2.17
C13A A26G C53U C104U	-5.09
C13A A103U U109A U125A U131G	-6.73
C13A C40A G52A C56U	-2.98
C12U C56A G113A	-0.59
C13A G17A C62A G120A	-5.55
C12U C56A A91U A121C	-0.738
C12U G44C C79A C89A	-1.32
C12U G60C C123G	1.46
C12U C20A G71A U87C	-2.91
C13A A24G G58C C115A	-3.96
C12U C62U U92C	-1.06
C12U C15U G61C C104U	-1.43
C12U C20U A46U U54C C56A U87G A91U	-3.03
C12U G48A C49G G51A U112A C123A	0.0276
C13A C15U G51A C94U	-5.17
C12U C70U G71U U112A C123G	0.00675
C12U G45U C82G C97G	-5.36
